Results published in PMC10186271, “The ABA-induced NAC transcription factor MdNAC1 interacts with a bZIP-type transcription factor to promote anthocyanin synthesis in red-fleshed apples”.

B1: MYB10 hot probe (dsDNA)
DNA 1: TTTAATAAAAAGGACCCTGAACACGTGGGAACCGGCCCGTTTGTAA
DNA 2: TTACAAACGGGCCGGTTCCCACGTGTTCAGGGTCCTTTTTATTAAA
B2: MYB10 mutant probe (dsDNA)
DNA 1: TTTAATAAAAAGGACCCTGAATTAATGGGAACCGGCCCGTTTGTAA
DNA 2: TTACAAACGGGCCGGTTCCCATTAATTCAGGGTCCTTTTTATTAAA
B3: UFGT hot probe (box 1) (dsDNA)
DNA 1: GTGATTGGCTTCTGATGTTGACACGTGTCGCGCTGTGGTTGGCTTC
DNA 2: GAAGCCAACCACAGCGCGACACGTGTCAACATCAGAAGCCAATCAC
B4: UFGT mutant probe (box 1) (dsDNA)
DNA 1: GTGATTGGCTTCTGATGTTGACCTCTGTCGCGCTGTGGTTGGCTTC
DNA 2: GAAGCCAACCACAGCGCGACAGAGGTCAACATCAGAAGCCAATCAC

Key:
MdNAC1 [1] = biological target: T1, MdNAC1 (Malus domestica, UniProt D9ZJ87 1-280); assay: EMSA; unlabeled competitor decreased binding; Thermo Scientific Pierce EMSA kit protocol; buffer, salt, pH and temperature not stated; cold probe 100x; settings: protein: recombinant; tags: His (pET32a); chain copies: 2; label: 3' biotin; blunt
T1 sequence: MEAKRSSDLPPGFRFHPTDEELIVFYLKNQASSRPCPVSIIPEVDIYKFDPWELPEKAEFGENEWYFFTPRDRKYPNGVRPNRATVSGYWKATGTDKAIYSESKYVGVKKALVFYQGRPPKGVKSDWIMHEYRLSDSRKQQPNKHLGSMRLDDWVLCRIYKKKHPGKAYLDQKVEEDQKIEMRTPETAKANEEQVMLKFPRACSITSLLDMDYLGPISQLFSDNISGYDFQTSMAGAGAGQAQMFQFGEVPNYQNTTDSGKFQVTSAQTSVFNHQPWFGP

MdNAC1 [2] = biological target: T1, MdNAC1; assay: EMSA; Thermo Scientific Pierce EMSA kit protocol; buffer, salt, pH and temperature not stated; cold probe 100x; settings: protein: recombinant; tags: His (pET32a); chain copies: 2; label: 3' biotin; blunt

Binder	binding result (MdNAC1 [1])	binding result (MdNAC1 [2])
B1	binds	–
B2	–	no binding
B3	binds	–
B4	–	no binding
